From the supplement of paper PMC7877785 come the findings set out here.

The nature of the data set: self-splicing fitness, log relative to wild type (ln ratio); higher = more splicing; Tetrahymena group I intron in knt gene, E. coli kanamycin selection, DiMSum; sequences stand for … in CUCUCU…GGAGGGAAAAGUUAUCAGGCAUGCACCUGGUAGCUAGUCUUUAAACCAAUAGAUUGCAUCGGUUUAAAAGGCAAGACCGUCAAAUUGCGGGAAAGGGGUCAACAGCCGUUCAGUACCAAGUCUCAGGGGAAACUUUGAGAUGGCCUUGCAAAGGGUAUGGUAAUAAGCUGACGGACAUGGUCCUAACCACGCAGCCAAGUCCUAAGUCAACAGAUCUUCUGUUGAUAUGGAUGCAGUUCACAGACUAAAUGUCGGUCGGGGAAGAUGUAUUCUUCUCAUAAGAUAUAGUCGGACCUCUCCUUAAUGGGAGCUAGCGGAUGAAGUGAUGCAACACUGGAGCCGCUGGGAACUAAUUUGUAUGCGAAAGUAUAUUGAUUAGUUUUGGAGUACUCGUGGUCG
The gist of the method:
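DiMSum derived fitness as the error-weighted combination of fold changes across replicates, kanamycin versus no kanamycin, normalised to wild type. E. coli BL21(DE3) held the library, which randomised all eight P1ex-region intron nucleotides within the knt kanamycin-resistance gene on pET-22b(+). Six replicate transformations grew overnight at 37°C or 30°C on LB agar with or without 25 μg/mL kanamycin, also containing 100 μg/mL carbenicillin, 50 μM IPTG and 0.2% rhamnose, and pooled colonies were amplicon-sequenced on an Illumina HiSeq 2500.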

± gives the uncertainty stated by the source.

Turning to GUAAAGCAAUAUUACGUAUU, the “self-splicing fitness (ln)” value reads like this: (30 °C) -1.87 ± 0.076; (37 °C) -1.69 ± 0.1.
Regarding UCCAAGCAAUAUUACGAAAC, the “self-splicing fitness (ln)” value was -3.13 ± 0.22 (30 °C) and -2.95 ± 0.35 (37 °C).
Take CCAGAGCAAUAUUACGAUAU: the “self-splicing fitness (ln)” value was -2.51 ± 0.23 (30 °C) and -3.19 ± 0.37 (37 °C).
The corresponding values for CGCGAGCAAUAUUACGUGAA are -3.57 ± 0.28 and -2.56 ± 0.35.
With AUGCAGCAAUAUUACGUUAA, the “self-splicing fitness (ln)” value was -2.58 ± 0.1 (30 °C) and -1.71 ± 0.094 (37 °C).
For AUUAAGCAAUAUUACGGCUG, the “self-splicing fitness (ln)” value runs as follows: (30 °C) -0.405 ± 0.083; (37 °C) -0.233 ± 0.1.
On to ACAGAGCAAUAUUACGAUAG, for which the “self-splicing fitness (ln)” value runs as follows: (30 °C) -2.78 ± 0.26; (37 °C) -3.02 ± 0.35.
With ACUCAGCAAUAUUACGUUCA, the “self-splicing fitness (ln)” value was -1.36 ± 0.085 (30 °C) and -0.842 ± 0.11 (37 °C).
The corresponding values for UAAAAGCAAUAUUACGUGGA are -2.94 ± 0.13 and -1.52 ± 0.1.
Take UUUCAGCAAUAUUACGAACG: the “self-splicing fitness (ln)” value is -0.381 ± 0.11 (30 °C) and 0.41 ± 0.14 (37 °C).
Turning to AAAGAGCAAUAUUACGUUCA, the “self-splicing fitness (ln)” value was -1.03 ± 0.094 (30 °C) and -0.639 ± 0.097 (37 °C).
For UUAGAGCAAUAUUACGCCAU, for the setting “30 °C”, the “self-splicing fitness (ln)” value is -2.82 ± 0.32.
UUUAAGCAAUAUUACGGAUG: the “self-splicing fitness (ln)” value is -1.56 ± 0.1 (30 °C) and -0.852 ± 0.13 (37 °C).
On to CAAGAGCAAUAUUACGUGCC, for which the “self-splicing fitness (ln)” value by setting is: (30 °C) -3.59 ± 0.32; (37 °C) -3.51 ± 0.39.
Regarding AGUAAGCAAUAUUACGGUUG, the “self-splicing fitness (ln)” value is, setting by setting: (30 °C) -3.09 ± 0.23; (37 °C) -2.51 ± 0.25.
Turning to CACUAGCAAUAUUACGAGCA, the “self-splicing fitness (ln)” value reads like this: (30 °C) -3.42 ± 0.18; (37 °C) -0.879 ± 0.11.
Take GGAGAGCAAUAUUACGCUUC: the “self-splicing fitness (ln)” value (37 °C) was -1.31 ± 0.43.
GAGAAGCAAUAUUACGAACU: the “self-splicing fitness (ln)” value was -0.774 ± 0.085 (30 °C) and -0.288 ± 0.092 (37 °C).
In the case of AGACAGCAAUAUUACGAAGC, under “37 °C”, the “self-splicing fitness (ln)” value is -1.62 ± 0.28.
Consider CCCGAGCAAUAUUACGUGGC, for which, for the setting “37 °C”, the “self-splicing fitness (ln)” value was -3.58 ± 0.25.
Turning to GUCAAGCAAUAUUACGGCAC, the “self-splicing fitness (ln)” value by setting is: (30 °C) -1.35 ± 0.16; (37 °C) 0.15 ± 0.22.
For the sequence GGCAAGCAAUAUUACGACUA, the “self-splicing fitness (ln)” value is, setting by setting: (30 °C) -0.26 ± 0.13; (37 °C) 0.336 ± 0.14.
For the sequence AUAUAGCAAUAUUACGAGCC, the “self-splicing fitness (ln)” value runs as follows: (30 °C) -2.89 ± 0.32; (37 °C) -2.08 ± 0.37.
Take CGCAAGCAAUAUUACGUUCG: the “self-splicing fitness (ln)” value runs as follows: (30 °C) -1.86 ± 0.069; (37 °C) -0.23 ± 0.082.
For GGUCAGCAAUAUUACGCCGG, the “self-splicing fitness (ln)” value was -2.68 ± 0.27 (30 °C) and -2.79 ± 0.3 (37 °C).
In the case of CUUUAGCAAUAUUACGCAUG, the “self-splicing fitness (ln)” value (30 °C) is -1.2 ± 0.11 and the “self-splicing fitness (ln)” value (37 °C) was -1.96 ± 0.11.
As for CCGAAGCAAUAUUACGUGGC, the “self-splicing fitness (ln)” value is -3.27 ± 0.19 (30 °C) and -2.61 ± 0.34 (37 °C).
As for GACUAGCAAUAUUACGUAUG, the “self-splicing fitness (ln)” value runs as follows: (30 °C) -1.82 ± 0.068; (37 °C) -1.33 ± 0.091.
GUAUAGCAAUAUUACGCUCU: the “self-splicing fitness (ln)” value was -1.76 ± 0.13 (30 °C) and -1.23 ± 0.15 (37 °C).
Regarding GGCAAGCAAUAUUACGGCUA, the “self-splicing fitness (ln)” value was -0.251 ± 0.11 (30 °C) and 1.23 ± 0.15 (37 °C).
Consider CCAAAGCAAUAUUACGAGGU, for which the “self-splicing fitness (ln)” value runs as follows: (30 °C) -4.24 ± 0.2; (37 °C) -1.71 ± 0.13.
As for ACAUAGCAAUAUUACGCGAG, the “self-splicing fitness (ln)” value (30 °C) is -1.01 ± 0.07 and the “self-splicing fitness (ln)” value (37 °C) is -0.654 ± 0.079.
The corresponding values for GAUGAGCAAUAUUACGCAGA are -3.98 ± 0.43 and -0.801 ± 0.19.
Turning to UCGCAGCAAUAUUACGAUAG, the “self-splicing fitness (ln)” value was -2.26 ± 0.15 (30 °C) and -1.26 ± 0.17 (37 °C).
As to UAUUAGCAAUAUUACGAUCC, the “self-splicing fitness (ln)” value is, setting by setting: (30 °C) -3.56 ± 0.38; (37 °C) -1.76 ± 0.25.
Take ACUUAGCAAUAUUACGACGC: the “self-splicing fitness (ln)” value reads like this: (30 °C) -0.152 ± 0.066; (37 °C) -0.0939 ± 0.072.
CAGAAGCAAUAUUACGGGCA: the “self-splicing fitness (ln)” value (30 °C) is -2.53 ± 0.16 and the “self-splicing fitness (ln)” value (37 °C) was -1.76 ± 0.18.
Consider AUGUAGCAAUAUUACGUGUC, for which the “self-splicing fitness (ln)” value was -3.79 ± 0.31 (30 °C) and -2.81 ± 0.26 (37 °C).
For the sequence GAAAAGCAAUAUUACGAUCG, the “self-splicing fitness (ln)” value is, setting by setting: (30 °C) -0.618 ± 0.06; (37 °C) 0.218 ± 0.08.
